Data from patent publication WO1995025167A1.

Columns and labels:
[1] = target: EGFR on EGFR-bearing tumor cells (human) (UniProt P00533); test: flow cytometry, crude bacterial supernatant on MDA MB 231 cells, positive control
[2] = target: EGFR on EGFR-bearing tumor cells (human) (UniProt P00533); test: flow cytometry, crude bacterial supernatant on A431 cells, positive control
[3] = target: EGFR on EGFR-bearing tumor cells (human) (UniProt P00533); test: flow cytometry, crude bacterial supernatant on HT29 cells, positive control

For scFv derived from MAb 425, the mean fluorescence (cytometric analysis) (arbitrary fluorescence units) [1] was 21.3, the mean fluorescence (cytometric analysis) (arbitrary fluorescence units) [2] was 85.5 and the mean fluorescence (cytometric analysis) (arbitrary fluorescence units) [3] was 2.5.
